This note sets out measurements from the supplement of paper PMC7877785.

± gives the uncertainty stated by the source.

The nature of this data set: self-splicing fitness, log relative to wild type (ln ratio); higher = more splicing; Tetrahymena group I intron in knt gene, E. coli kanamycin selection, DiMSum; sequences stand for … in CUCUCU…GGAGGGAAAAGUUAUCAGGCAUGCACCUGGUAGCUAGUCUUUAAACCAAUAGAUUGCAUCGGUUUAAAAGGCAAGACCGUCAAAUUGCGGGAAAGGGGUCAACAGCCGUUCAGUACCAAGUCUCAGGGGAAACUUUGAGAUGGCCUUGCAAAGGGUAUGGUAAUAAGCUGACGGACAUGGUCCUAACCACGCAGCCAAGUCCUAAGUCAACAGAUCUUCUGUUGAUAUGGAUGCAGUUCACAGACUAAAUGUCGGUCGGGGAAGAUGUAUUCUUCUCAUAAGAUAUAGUCGGACCUCUCCUUAAUGGGAGCUAGCGGAUGAAGUGAUGCAACACUGGAGCCGCUGGGAACUAAUUUGUAUGCGAAAGUAUAUUGAUUAGUUUUGGAGUACUCGUGGUCG
The procedure, abridged:
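Library with all eight P1ex-region intron nucleotides randomised, intron inside the knt kanamycin-resistance gene on pET-22b(+), in E. coli BL21(DE3). Cells grew overnight at 37°C or 30°C on LB agar with or without 25 μg/mL kanamycin (plus 100 μg/mL carbenicillin, 50 μM IPTG, 0.2% rhamnose), in six replicate transformations. Pooled colonies were amplicon-sequenced on Illumina HiSeq 2500. DiMSum fitness is the error-weighted combination of wild-type-normalised replicate fold changes, kanamycin versus none.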

In the case of GCCUAGCAAUAUUACGCUUA, the “self-splicing fitness (ln)” value was -1.01 ± 0.1 (30 °C) and -0.807 ± 0.11 (37 °C).
The matching figures for GGUAAGCAAUAUUACGCUCU: -3.29 ± 0.32 and -2.16 ± 0.35.
The matching figures for UAAAAGCAAUAUUACGAGGA: -2.79 ± 0.17 and -1.54 ± 0.14.
Regarding GUCUAGCAAUAUUACGUGGG, the “self-splicing fitness (ln)” value reads like this: (30 °C) -2.01 ± 0.12; (37 °C) -1.64 ± 0.16.
Take AACGAGCAAUAUUACGGGGU: the “self-splicing fitness (ln)” value (30 °C) is -3.26 ± 0.35.
Take CCGCAGCAAUAUUACGUUGA: the “self-splicing fitness (ln)” value by setting is: (30 °C) -3.59 ± 0.16; (37 °C) -3.41 ± 0.25.
The matching figures for UGCGAGCAAUAUUACGAAUG: -2.77 ± 0.18 and -2.43 ± 0.23.
The matching figures for GCAUAGCAAUAUUACGCAGG: -2.58 ± 0.21 and -1.35 ± 0.22.
The matching figures for ACAAAGCAAUAUUACGCGGC: -2.91 ± 0.13 and -3.04 ± 0.21.
As to UCACAGCAAUAUUACGAAUU, the “self-splicing fitness (ln)” value (30 °C) was -4.34 ± 0.22 and the “self-splicing fitness (ln)” value (37 °C) is -2.4 ± 0.16.
The corresponding values for CAUCAGCAAUAUUACGAUAC are -2.95 ± 0.16 and -1.75 ± 0.16.
The matching figures for UCAGAGCAAUAUUACGCGGU: -4.12 ± 0.33 and -3.04 ± 0.32.
The matching figures for CCCCAGCAAUAUUACGGGCU: -3.75 ± 0.17 and -2.32 ± 0.17.
Consider UGUCAGCAAUAUUACGGUGG, for which the “self-splicing fitness (ln)” value runs as follows: (30 °C) -2.14 ± 0.099; (37 °C) -1.32 ± 0.097.
Turning to UACCAGCAAUAUUACGCGCG, the “self-splicing fitness (ln)” value by setting is: (30 °C) 0.11 ± 0.068; (37 °C) 0.573 ± 0.09.
With UUUGAGCAAUAUUACGGACG, the “self-splicing fitness (ln)” value reads like this: (30 °C) -2.51 ± 0.24; (37 °C) -2.71 ± 0.31.
On to GGCAAGCAAUAUUACGUCAU, for which the “self-splicing fitness (ln)” value (30 °C) is -1.32 ± 0.072 and the “self-splicing fitness (ln)” value (37 °C) is -0.111 ± 0.083.
In the case of UGGGAGCAAUAUUACGCUGG, the “self-splicing fitness (ln)” value is, setting by setting: (30 °C) -1.91 ± 0.29; (37 °C) -1.55 ± 0.35.
The matching figures for ACCGAGCAAUAUUACGCGGG: -3.85 ± 0.18 and -2.89 ± 0.19.
The corresponding values for CGGAAGCAAUAUUACGACGG are -0.101 ± 0.13 and -0.695 ± 0.14.
The matching figures for GCUAAGCAAUAUUACGCGUG: -1.88 ± 0.092 and -1.44 ± 0.12.
GCUUAGCAAUAUUACGGCAA: the “self-splicing fitness (ln)” value by setting is: (30 °C) -2.6 ± 0.17; (37 °C) -2.6 ± 0.17.
In the case of CAGAAGCAAUAUUACGAGCC, the “self-splicing fitness (ln)” value (30 °C) was -3.03 ± 0.47 and the “self-splicing fitness (ln)” value (37 °C) is -1.82 ± 0.27.
As for AUGCAGCAAUAUUACGGCAA, the “self-splicing fitness (ln)” value by setting is: (30 °C) 0.0857 ± 0.12; (37 °C) 0.0922 ± 0.12.
The matching figures for UAGUAGCAAUAUUACGUCGU: -3.76 ± 0.38 and -2.81 ± 0.21.
In the case of UGAAAGCAAUAUUACGAAGC, under “37 °C”, the “self-splicing fitness (ln)” value is -2.07 ± 0.28.
Take UAGGAGCAAUAUUACGAGAA: the “self-splicing fitness (ln)” value is, setting by setting: (30 °C) -3.23 ± 0.44; (37 °C) -2.68 ± 0.42.
The matching figures for CGUAAGCAAUAUUACGUGGU: -3.19 ± 0.13 and -2.72 ± 0.16.
As for UGAAAGCAAUAUUACGGACA, the “self-splicing fitness (ln)” value (30 °C) was -0.0695 ± 0.088 and the “self-splicing fitness (ln)” value (37 °C) was -0.28 ± 0.096.
In the case of CUAGAGCAAUAUUACGGUUU, for the setting “30 °C”, the “self-splicing fitness (ln)” value was -4.03 ± 0.31.
Turning to AGGUAGCAAUAUUACGCCAU, the “self-splicing fitness (ln)” value (30 °C) was -1.89 ± 0.021 and the “self-splicing fitness (ln)” value (37 °C) is -0.939 ± 0.036.
The corresponding values for GACCAGCAAUAUUACGGUGC are -2.31 ± 0.067 and -2.09 ± 0.09.
Turning to UUUUAGCAAUAUUACGGCAU, the “self-splicing fitness (ln)” value runs as follows: (30 °C) -2.8 ± 0.41; (37 °C) -0.972 ± 0.29.
The corresponding values for GGCCAGCAAUAUUACGAUAC are -2.04 ± 0.11 and -0.501 ± 0.13.
